Data published in the supplement of paper PMC9170038.

System: MS2 coat protein
Assay: apparent KD of MS2 coat protein; higher = weaker reporter binding
Settings: Eterna round: R107
Procedure, shortened: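 Normalised binding curves from single clusters were fitted, and the median fit for each design is given as apparent KD. The clusters held designed RNA switches transcribed on-chip from Illumina sequencing clusters. These were titrated with SNAP-549-labelled MS2 coat protein (twofold steps from 0.7 or 1.5 nM to 3 µM, 0.8–1.5 h to 10–20 min per step) in 100 mM Tris-HCl pH 7.5, 80 mM KCl, 4 mM MgCl2, without or with constant ligand.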

[1] = input ligand: theophylline 20 uM
[2] = input ligand: theophylline 2 mM
[3] = input ligand: tryptophan 2.4 mM

Sequence | apparent KD of MS2 coat protein (input ligand: arginine 13.2 mM) | apparent KD of MS2 coat protein (input ligand: none) | apparent KD of MS2 coat protein [1] | apparent KD of MS2 coat protein [2] | apparent KD of MS2 coat protein [3]
GCCAAAGGCUACAUGAGGAUCACCCAUGUACGAGGACCGGUACGGCCGCCACUCGUACGGCCUCCUACUGGACGGGAAACCGUCG [ETA NP+V+V2 #28] | 13.1 nM | 20.6 nM | 34.1 nM | 28 nM | 33.2 nM
GCCGCCGGUGCUUCAUUCCCUGAGCGACGGCGAGGACCGGUACGGCCGCCACUCGGCUCGGUACAUGAGGAUCACCCAUGUCUUU [theeternabot_exclusion_MS2_Trp_A_11] | 30.7 nM | – | 58.4 nM | 60.8 nM | –
GCCGGACUUUCGGCCGCCACUGAGAGAGUCGUGUGAACAUGAGGAUCACCCAUGUAAUAUAUAUACAGGACCGGGAGGGUCCGGC [4.T] | 12.3 nM | 12.1 nM | 18.3 nM | 12.7 nM | 10.2 nM
GCUACAUGAGGAUCACCCAUGUAUGCGAGCCGAGGACCGGUACGGCCGCCACUCGCUUAACAUGAGGAUCACCCAUGUUGCUCGC [SSTA DOUBLE!!! :-D #18] | 19.7 nM | – | 36.2 nM | 28.1 nM | –
GCUAGGUCAUCGGCCGCCACUAACGAUGGCUCCGACAUGAGGAUCACCCAUGUGCCACUUGCGCAUAGGACCGGGAUGACCUAGC [SSTB NP+V+V2 #1] | 17.7 nM | 15 nM | 24.3 nM | 17.2 nM | 11.5 nM
GCUGAACAUGAGGAUCACCCAUGUCCGGAUACCAGCGGACCUCAUCGCCCUUGGCAGCCGAACCAACAGCUUGUGGUGUUCACUC [theeternabot_sameState_MS2_Theo_A_10] | 32.2 nM | – | 58.2 nM | – | 37.2 nM
GCUGUAAGUGCAGAUACCAGCAUGUUAUAUUUCUAAUGACAUGAGGAUCACCCAUGUAAAUGCCCUUGGCAGCUGCACUUACAGC [SSTHB #6] | 15.6 nM | – | 21.4 nM | – | 18.7 nM
GCUGUACCAUGAAGGAGCGUCGUUGAUUGAGAAUACACAUGAGGAUCACCCAUGUUUUUAUGACAGGUAGGUCGCAUGGUACAGC [SSAB #16] | 13.8 nM | 12.9 nM | 25.1 nM | 18.9 nM | 12.1 nM
GCUUGGGUGGCACAGCACUGGCAGUGCGAUACCAGCACGGUAACGUGCCCUUGGCAGCGCACAUGAGGAUCACCCAUGUGGUGCG [#1 Exclusion - Theophylline A Attempt #26 (HarryS)] | 18.8 nM | 24.4 nM | 66.9 nM | 275 nM | 26 nM
GCUUGGGUGGCACGGCCCUGGCGGUGCGAUACCAGCACGGUAACGUGCCCUUGGCAGCGCACAUGAGGAUCACCCAUGUGGUGCG [#1 Exclusion - Theophylline A Attempt #24 (HarryS)] | 13.1 nM | 15.6 nM | 21.9 nM | 185 nM | 13.7 nM
GGACCAUGGAGCGAUACCAGCUUGAGUGUACUGGCCAGGUACAUGAGGAUCACCCAUGUAAGCCCUUGGCAGCGCUCCAUGGUCC [#1 Exclusion - Theophylline B Attempt #25 (HarryS)] | 8.38 nM | 9.95 nM | 14.7 nM | 30.8 nM | 12.3 nM
GGACUAACCUGAAGGAGCGACGCGCAGAAACUGCAAUUUCCUCCACACGAGGAUCACCCGUGUCAGGUAGGUCGCAGGUUAGUCG [ArgBX 29] | 13.1 nM | 14.1 nM | 18.3 nM | 15.4 nM | 15.3 nM
GGACUAACUGGAAGGAGCGACACGCAGAAACUGCAAUUUCCUCCACACGAGGAUCACCCGUGUCAGGUAGGUCGCCAGUUAGUCG [ArgBX 29] | 31.3 nM | 39.1 nM | 52 nM | 57 nM | 40.9 nM
GGAGGUACCCGAAGGAGCGACAUGAGGAUCACCCAUGUCUCCCGUUAUGGGAGUUCCUUAGGUCAGGUAGGUCGCGGGUACCUCC [#1 Exclusion - Arginine B Attempt #1 (Inspired by Omei)] | 92.7 nM | 124 nM | 162 nM | 128 nM | 109 nM
GGAGUAGGAAACUAUUCCAAUCCUCGUGAACGAGGACCGGUACGGCCGCCACUCGAUAAAUAAAUACAUGAGGAUCACCCAUGUU [Ex Tryptophan A 23] | 38 nM | – | 71.4 nM | 82.1 nM | –
GGAUAGGACACGGCCGCCACUACCUAGGAUACUAGAAACAUUUCCUCACAUGAGGAUCACCCAUGUAGGACCGGGUGUCCUAUCG | 106 nM | – | 284 nM | 351 nM | –
GGAUGAAACUGAAGGAGCGAGAUCACAAGAUUGGGUCUAACAUGAGGAUCACCCAUGUAAUCUCAGGUAGGUCGCAGUGUCCCUU [Exclusion Arginine B GF 12] | 33 nM | 26.6 nM | 42 nM | 43.5 nM | 31.6 nM
GGAUGCGGCACGGCCGCCACUGCGGUGGUGUGACAUGAGGAUCACCCAUGUUGUCAUGCGGCCCUUAGGACCGGGUGGCGUGUCC [#1 Exclusion - Tryptophan B Attempt #19 (HarryS)] | 37.2 nM | – | 57.4 nM | 56.3 nM | –

Sequence | apparent KD of MS2 coat protein (input ligand: arginine 13.2 mM) | apparent KD of MS2 coat protein (input ligand: none) | apparent KD of MS2 coat protein [1] | apparent KD of MS2 coat protein [2] | apparent KD of MS2 coat protein [3]
GGAUGGAACUCGGCCGCCACUGGUGAUCCUAAUGUACAUGAGGAUCACCCAUGUACAUGAGAAGAUAGGACCGGGAGAUAAGGGA [Tryptophan B V4 (+4G)] | 19.9 nM | 19.3 nM | 24.3 nM | 26.3 nM | 20.7 nM
GGCACCAGGAGAAGGAGCGUGAAGACAUGAGGAUCACCCAUGUAGAGGCCCGUACAGGGUUCGCAGGUAGGUCGCUCCUGGUGCC [#1 Same State - Arginine B Attempt #12 (HarryS)] | 19.3 nM | 18.4 nM | 27.3 nM | 22.6 nM | 18.8 nM
GGCACCAGGAGAAGGAGCGUGAAGACAUGAGGAUCACCCAUGUAGAGGCGCCGACGGCGUUCGCAGGUAGGUCGCUCCUGGUGCC [#1 Same State - Arginine B Attempt #16 (HarryS)] | 20.9 nM | 21 nM | 32.3 nM | 23.5 nM | 29.3 nM
GGCCCUGCGAGCGCUCGCAGGGCCGCGGAUACCAGCGAGGUCCAUCGCCCUUGGCAGCCGAACAUGAGGAUCACCCAUGUCGGUC [#1 Same State - Theophylline A Attempt #11 (HarryS)] | 11.4 nM | 11.6 nM | 18.7 nM | 28.1 nM | 10.7 nM
GGCUGUCAUAGGAGGUGAAAUAUACUCGAAGGAGCGUCAUAGUAGGCAGGUAGGUCGCGAGACAUGAGGAUCACCCAUGUAGAGA [yyumullin] | 38.9 nM | 53.9 nM | 162 nM | 67.7 nM | 56.4 nM
GGGCAAGAGGGAAGGAGCGUUAGCUGAGUCACAUGAGGAUCACCCAUGUCGCACGUAGUAUGACAGGUAGGUCGCCCUCUACCCU [SS-ArgB15] | 18 nM | 18.1 nM | 22.1 nM | 21.6 nM | 18.9 nM
GGGCCCGGGCCGCGCGCGGCCCGGGCCCAACGAGGACCGGUACGGCCGCCACUCGAACGAGUGGGUACAUGAGGAUCACCCAUGU [Aaa] | 25.7 nM | 27 nM | 41.8 nM | 45 nM | 33.3 nM
GGGUAAGAUCCGGAUACCAGCGAACAUGAGGAUCACCCAUGUGAAAUAAGAUAGAAUAAACGCCCUUGGCAGCCGAAAUAGAGUU [Same State Theophylline B GF 3] | 41.3 nM | – | 81.9 nM | – | 88.9 nM
GGGUGGUAGGCGGCCGCCACUGAUUUUCAUUUAUAGAUGACAUGAGGAUCACCCAUGUUUAUGUGCAGGACCGGGCCUGCUGUGG [aaaT] | 102 nM | 68 nM | 130 nM | 137 nM | 78.2 nM
GGUCUCUGGAGCGAUACCAGCUUGAUCGUACUAGCCUGGUACAUGAGGAUCACCCAUGUAAGCCCUUGGCAGCGCUCCAGAGACC [#1 Exclusion - Theophylline B Attempt #8 (HarryS)] | 11.8 nM | 12.7 nM | 15.8 nM | 21.4 nM | 12.1 nM
GGUGGCGUGACGGAUACCAGCCACCACCGCAAGACCACAUGAGGAUCACCCAUGUUGGGUGGCCCUUGGCAGCUGUCGUGCGGCG [#1 Same State - Theophylline B Attempt #19 (HarryS)] | 15 nM | 213 nM | 331 nM | 475 nM | 110 nM
GGUGGCUGGAUCGAUACCAGCCACCACCGAUAGACCACAUGAGGAUCACCCAUGUUGGGUGGCCCUUGGCAGCGGUCCAGCUGCC [#1 Same State - Theophylline B Attempt #5 (HarryS)] | 78.8 nM | 587 nM | 1010 nM | 1240 nM | 851 nM
GUAAGACAUGAGGAUCACCCAUGUGUCGAUACCAGCCCUGCCUCUGGCCCUUGGCAGCGACUCGCACACCUCGCACUGCACAAGU [theeternabot_sameState_MS2_Theo_A_13] | 42.6 nM | – | 59.5 nM | – | 49 nM
GUAAUUUAUUGAAGGAGCGUCGAAAAUGGGUAAACAUGAGGAUCACCCAUGUAAAGGGAACGACAGGUAGGUCGCAAUAGGUUAC [AstromonsSSArgB#29] | 103 nM | 192 nM | 252 nM | 285 nM | 197 nM
GUACAUGAGGAUCACCCAUGUAUAGUUGAAGGAGCGACCAGAGGGUCAGGUAGGUCGCAGCACAUGGUGUAAACCCGUGUAUGCC [#1 Exclusion - Arginine A Attempt #22 (Inspired by Pi)] | 29.6 nM | 29.3 nM | 34.6 nM | 28.9 nM | 26.8 nM
GUAUAUUGAAAACAAUAUACAGUGGGUGAACGAGGACCGGUACGGCCGCCACUCGGACAUGAGGAUCACCCAUGUCCAUGUGAAA [AstrosExyTryA#8] | 15.1 nM | – | 17.1 nM | 17.7 nM | –
GUAUUCAUGACGGCCGCCACUGCAAGCCUCCUCAUGGCAGAUUGACAUGAGGAUCACCCAUGUCUCAGGACCGGGUCUGGCAUCC [theeternabot_sameState_MS2_Trp_B_43] | 65.8 nM | – | 244 nM | 346 nM | –
GUAUUUAUAUGAAGGAGCGUCGAAAAUGGGUAAACAUGAGGAUCACCCAUGUAAAGGGAACGACAGGUAGGUCGCAUAUGGAUAC [AstromonsSSArgB#25] | 111 nM | 160 nM | 251 nM | 279 nM | 239 nM
